Laboratory results published in patent US20120231013A1 (Amgen, published 2012).
Changes are numbered by the printed parent chain. Values joined by “and” are separate entries in the source; they are usually repeats but may differ in a detail not shown here. Identical values can stand only once.

T1: recombinant human TIMP-3 (human, UniProt P35625 24-211)
T1 construct: also called HuTIMP-3; huTIMP-3
T1 sequence (looked up): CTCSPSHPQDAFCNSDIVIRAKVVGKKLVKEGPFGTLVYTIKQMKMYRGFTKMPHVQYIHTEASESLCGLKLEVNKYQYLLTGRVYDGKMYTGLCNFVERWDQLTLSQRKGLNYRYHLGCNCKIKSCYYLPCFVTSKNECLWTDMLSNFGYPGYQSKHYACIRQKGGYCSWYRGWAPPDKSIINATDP

T2: recombinant mouse TIMP-3 (mouse, UniProt P39876 24-211)
T2 construct: also called MuTIMP-3
T2 sequence (looked up): T1 sequence (looked up) with T51S, D87E, Q103H, I183S

B1: LRP-1 peptide LA28 (peptide)
chain: not shown
notes: Tags implied (Ni-NTA, anti-HA detection), not described
B2: LRP-1 peptide LA3 (peptide)
chain: not shown
B3: LRP-1 peptide LA5 (peptide)
chain: not shown
B4: LRP-1 peptide LA26-28 (peptide)
chain: CEPYQFRCKNNRCVPGRWQCDYDNDCGDNSDEESCTPRPCSESEFSCANGRCIAGRWKCDGDHDCADGSDEKDCTPRCDMDQFQCKSGHCIPLRWRCDADADCMDGSDEEACGTGVRT
B5: LRP-1 peptide LA21 (peptide)
chain: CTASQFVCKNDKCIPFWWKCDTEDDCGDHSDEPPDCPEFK
notes: as for B1
B6: LRP-1 peptide LA27 (peptide)
chain: not shown
B7: LRP-1 peptide LA22 (peptide)
chain: not shown
notes: as for B1
B8: LRP-1 peptide LA21-23 (peptide)
chain: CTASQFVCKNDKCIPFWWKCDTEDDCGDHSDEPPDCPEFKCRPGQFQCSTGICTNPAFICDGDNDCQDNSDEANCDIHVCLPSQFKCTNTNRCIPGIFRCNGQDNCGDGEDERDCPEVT
B9: LRP-1 peptide LA11-20 (peptide)
chain: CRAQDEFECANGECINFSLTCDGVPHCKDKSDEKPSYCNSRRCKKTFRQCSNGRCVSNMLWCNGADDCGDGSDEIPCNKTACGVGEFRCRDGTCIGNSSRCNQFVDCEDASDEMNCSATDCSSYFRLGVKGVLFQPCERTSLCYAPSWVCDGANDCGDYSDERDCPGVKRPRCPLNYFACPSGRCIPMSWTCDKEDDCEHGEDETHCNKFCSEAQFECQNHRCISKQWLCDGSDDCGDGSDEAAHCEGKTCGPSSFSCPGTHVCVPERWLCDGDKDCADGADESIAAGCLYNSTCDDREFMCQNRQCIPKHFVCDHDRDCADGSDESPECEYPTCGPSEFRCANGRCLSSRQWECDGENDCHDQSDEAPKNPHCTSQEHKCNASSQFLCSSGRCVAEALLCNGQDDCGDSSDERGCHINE
B10: LRP-1 peptide LA17 (peptide)
chain: CGPSSFSCPGTHVCVPERWLCDGDKDCADGADESIAAGCLYNST
notes: as for B1
B11: LRP-1 peptide LA6 (peptide)
chain: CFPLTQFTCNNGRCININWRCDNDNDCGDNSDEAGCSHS
notes: as for B1
B12: LRP-1 peptide LA23-24 (peptide)
chain: not shown
notes: as for B1
B13: LRP-1 peptide LA4-5 (peptide)
chain: CPSDRFKCENNRCIPNRWLCDGDNDCGNSEDESNATCSARTCPPNQFSCASGRCIPISWTCDLDDDCGDRSDESASCAYPT
B14: LRP-1 peptide LA16 (peptide)
chain: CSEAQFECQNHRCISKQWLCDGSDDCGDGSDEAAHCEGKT
B15: LRP-1 peptide LA26 (peptide)
chain: not shown
notes: as for B1
B16: LRP-1 peptide LA7 (peptide)
chain: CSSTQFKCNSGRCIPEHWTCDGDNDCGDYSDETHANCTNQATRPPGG
notes: The end 1061 is inferred from the end of LA5-7; Tags implied, not described

What was measured:
[1] = target: T3, recombinant TIMP-3 (human or mouse; Table 2 does not say which); assay: binding ELISA, Assay 2
T3 construct: The methods say 'human or mouse TIMP-3'

[2] = target: T3, recombinant TIMP-3 (human or mouse; …); assay: AlphaScreen, biotinylated TIMP-3, Assay 1
Protocol: (§1) Peptides were also evaluated by AlphaScreen® (Amplified Luminescent Proximity Homogeneous Assay; PerkinElmer, Waltham, Mass.) a very sensitive non-radioactive homogeneous assay technology that allows the screening of a large range of biological interactions and activities, substantially according to the manufacturer's instructions. Briefly, all dilutions are made in AlphaScreen® Buffer: [40 mM HEPES pH 7.5, 100 mM NaCl, 1 mM CaCl2, 0.1% BSA, 0.05% Tween-20]. The LRP-1 peptides are titrated in a separate polypropylene 96-well plate (Falcon) starting at 4 microM concentration and then diluted serially 3-fold for 12-points, with the last point buffer only. First 2 microL/well of protein titration curve is added to white, small volume, 384-well assay plate (Greiner Bio-One, Stonehouse, UK) in duplicate. Next, 2 microL of biotinylated (AFS, in-house conjmicroGation) recombinant human or mouse TIMP-3, is added at 12 nM (or 3 nM final assay concentration) to the assay plate. Lastly, in subdued light 4 microL of a mixture of streptavidin donor beads, anti-mouse IgG acceptor beads (PerkinElmer) both diluted to 20 microG/mL (10 microG/mL final assay concentration) and 2 nM (1 nM final concentration) rat-anti-HA (clone3F10)-HRP (Roche Diagnostics) is added to the plates. Plates containing 8 microL final assay volme are covered with TopSeal A (to prevent evaporation), spun quickly at 1000 rpm, and incubated overnight (covered with foil to prevent light exposure) before reading on Fusion plate reader (PerkinElmer) using AlphaScreen® parameters (excitation 680 nm and emission 520-620 nm). Data is analyzed using GraphPad Prism 4.01 software. Binding to TIMP-3 is reported as total signal (cps).

[3] = target: T1, recombinant human TIMP-3; assay: indirect ELISA, huTIMP-3 captured by anti-TIMP-3 clone 277128
Protocol: (§2) Then 100 microL/well of the diluted LRP-1 peptide titration is added to the TIMP-3 coated plate and allowed to bind for 1.5 hour at room temperature with shaking. After incubation, the plate is washed three times with 200 microL/well of wash buffer 2 (TBS [pH 7.5], 1 mM CaCl₂, 0.02% Tween-20). […] The assay plate is then washed three times with 200 microL/well with wash buffer 2. The plate is developed by adding 100 microL/well of 1:1 mixture of TMB and H₂O₂ (Pierce, Fisher Thermo Scientific, Rockford Il.), the reaction is stopped by adding 100 microL/well 2NH₂SO₄ (VWR), and read on a SpectraMax microplate reader (Molecular Devices, Sunnyvale, Calif.) at OD450 nm using SOFTmax Pro software version 3.1.2. Data is analyzed using GraphPad Prism 4.01 software. Binding of LRP-1 peptides to TIMP-3 is expressed as binding EC50.
After incubation, the plate contents are discarded and 250 microL/well of blocking buffer (1% BSA, TBS [pH 7.5], 1 mM CaCl₂) is added to the plate which is incubated with shaking for 1 hour at room temperature. The plate is then washed three times with 200 microL/well with wash buffer 1 (TBS [pH 7.5], 1 mM CaCl₂) followed by the addition of 100 microL of 20 nM recombinant human TIMP-3. The plate is incubated at room temperature for 1 hour. The LRP-1 peptides are titrated as described previously, and 100 microL/well of the diluted LRP-1 peptide titration is added to the TIMP-3 coated plate and allowed to bind for 1.5 hour at room temperature with shaking. After incubation, the plate is washed and the ELISA performed substantially as described previously for the direct binding ELISA.

[4] = target: MMP-13 (UniProt P45452 20-471, limits assumed); assay: cell-based or functional assay
[5] = target: T1, recombinant human TIMP-3; assay: cell-based or functional assay
[6] = target: T2, recombinant mouse TIMP-3; assay: direct ELISA, coated muTIMP-3
Protocol: as §2, with “After incubation, the coating solution is removed and replaced with 250 microL/well of blocking buffer (1% BSA, TBS [pH 7.5], 1 mM CaCl₂) and incubated with shaking for 1 hour at room temperature. The plates are then washed three times with 200 microL/well with wash buffer 1 (TBS [pH 7.5], 1 mM CaCl₂). The LRP-1 peptides are titrated in assay buffer (0.1% BSA, TBS [pH 7.5], 1 mM CaCl₂, 0.02% Tween-20) in a separate polypropylene non-treated round-bottom 96-well plate (BD Falcon™) starting at 1 microM concentration and then diluted serially 4-fold for 8-points, with the last point buffer only. Then” for “Then”

[7] = target: T1, recombinant human TIMP-3; assay: direct ELISA, coated huTIMP-3
Protocol: as §2, with “After incubation, the coating solution is removed and replaced with 250 microL/well of blocking buffer (1% BSA, TBS [pH 7.5], 1 mM CaCl₂) and incubated with shaking for 1 hour at room temperature. The plates are then washed three times with 200 microL/well with wash buffer 1 (TBS [pH 7.5], 1 mM CaCl₂). The LRP-1 peptides are titrated in assay buffer (0.1% BSA, TBS [pH 7.5], 1 mM CaCl₂, 0.02% Tween-20) in a separate polypropylene non-treated round-bottom 96-well plate (BD Falcon™) starting at 1 microM concentration and then diluted serially 4-fold for 8-points, with the last point buffer only. Then” for “Then”

[8] = target: T3, recombinant TIMP-3 (human or mouse; …); assay: AlphaScreen, biotinylated TIMP-3, Assay 2
Protocol: as §1

Row | Binder | EC50 [1] | total signal (cps) [2] | EC50 [3] | Direct Inhibition of MMP13 (% decrease), 1000 nM [4] | % of the inhibitory activity of TIMP-3 + peptide compared to TIMP-3 alone, 80 nM [5] | % of the inhibitory activity of TIMP-3 + peptide compared to TIMP-3 alone, 400 nM [5] | % of the inhibitory activity of TIMP-3 + peptide compared to TIMP-3 alone, 2000 nM [5] | % of the inhibitory activity of TIMP-3 + peptide compared to TIMP-3 alone, 16 nM [5] | EC50 [6] | EC50 [7] | total signal (cps) [8]
1 | B1 | 300 nM | 2200 cps | 972 nM | 32% |  |  |  |  |  |  | 
2 | B2 |  |  |  | 7% | 84% | 80% | 109% |  |  |  | 
3 | B3 |  |  |  | 69% |  |  |  |  |  |  | 
4 | B4 |  |  |  | 53% | 100% | 104% |  | 100% |  |  | 
5 | B5 | 1020 nM | 2200 cps | 313 nM | -2% |  |  |  |  | 206 nM | 303 nM | 
6 | B6 |  |  |  | 47% |  |  |  |  |  |  | 
7 | B7 | 426 nM | 2200 cps | 185 nM and 200 nM | 59% |  |  |  |  | 394 nM and 478 nM | 456 nM and 340 nM | 
8 | B8 |  |  |  | 19% | 96% | 100% | 107% | 97% |  |  | 
9 | B9 |  |  |  | 26% |  |  |  |  |  |  | 
10 | B10 |  | 2200 cps |  | 41% | 93% | 77% | 77% |  |  | 886 nM | 
11 | B11 | 1210 nM | 2200 cps | 9 nM | 57% |  |  |  |  | 38 nM | 95 nM | 
12 | B12 | ~600 nM | 2200 cps | 85 nM |  |  | 92% | 53% |  | 140 nM | 187 nM | 2000 cps
13 | B13 |  |  |  | 26% | 101% |  | 104% |  |  |  | 
14 | B14 |  |  |  | 20% | 101% | 52% | 89% | 105% |  |  | 
15 | CLPSQFKCTNTNRCIPGIFRCNGQDNCGDGEDERDCPEVT [LRP-1 peptide LA23] |  |  |  | 46% | 107% |  | 84% | 104% |  |  | 
16 | B15 | 300 nM | 2200 cps | 179 nM | 1% | 109% | 112% | 108% | 96% | 134 nM | 118 nM | 
17 | B16 | ~2500 nM | 2200 cps |  |  |  |  |  |  |  |  | 
18 | CNASSQFLCSSGRCVAEALLCNGQDDCGDSSDERGCHINE [LRP-1 peptide LA20] |  |  |  | 0% |  |  |  |  |  |  | 
